As usually defined, the Kd is the constant that tells how readily two partners part at equilibrium. A higher Kd goes with lower affinity.

Substitutions are numbered along the chain they refer to.

Data on five molecules can be found in patent US20230121775A1 (AMUNIX PHARMACEUTICALS, published 2023).

This assay addresses Biotinylated CD3(Eµ antigen (Creative Biomart) (UniProt P07766 23-126, biotinylated (site not stated))). The experiment in a line: BLI (ForteBio BLItz), biotinylated CD3 antigen on streptavidin biosensor, scFv in solution. In general terms: In BLI a coated tip is dipped into the sample, and binding shifts an interference pattern.

Biotinylated CD3(Eµ antigen (Creative Biomart), sequence (P07766 23-126): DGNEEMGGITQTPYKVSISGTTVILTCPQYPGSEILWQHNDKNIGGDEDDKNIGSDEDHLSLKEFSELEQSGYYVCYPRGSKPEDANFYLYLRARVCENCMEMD

B1: CD3.9 scFv (parental anti-CD3 scFv) (scFv)
scFv: ELVVTQEPSLTVSPGGTVTLTCRSSTGAVTTSNYANWVQQKPGQAPRGLIGGTNKRAPGTPARFSGSLLGGKAALTLSGVQPEDEAEYYCALWYSNLWVFGGGTKLTVLGATPPETGAETESPGETTGGSAESEPPGEGEVQLLESGGGLVQPGGSLKLSCAASGFTFNTYAMNWVRQAPGKGLEWVARIRSKYNNYATYYADSVKDRFTISRDDSKNTAYLQMNNLKTEDTAVYYCVRHGNFGNSYVSWFAYWGQGTLVTVSS
notes: VL-linker-VH scFv; also called hCD3.9; aCD3.9
Turning to B1, the affinity, expressed as Kd, was 75 nM.

B2: CD3.24 scFv (scFv)
scFv: B1 scFv with T26N, A28E, N54I, E87V, S95P, L150I, A220V, G241E, Y253H
notes: VL-linker-VH scFv
As to B2, binding was put at a Kd of 296 nM.

B3: CD3.23 scFv (scFv)
scFv: B1 scFv with T26N, T31S, E87V, S95P, L150I, A220V, G241E, Y253H
notes: VL-linker-VH scFv; also called hCD3.23; aCD3.23
With B3, the Kd was determined as 175 nM.

B4: CD3.25 scFv (scFv)
scFv: B1 scFv with L10H, T31S, N54I, S95P, L150I, A220V, G241E, Y253H
notes: VL-linker-VH scFv
B4 showed a Kd of 215 nM.

B5: CD3.26 scFv (scFv)
scFv: B1 scFv with L10H, A28E, N54I, S95P, L150I, A220V, G241E, Y253H
notes: VL-linker-VH scFv
In turn, B5 yielded a Kd of 221 nM.
